# Tested on: COc1cccc2c1C(=O)c1c(O)c3c(c(O)c1C2=O)C[C@@](O)(C(C)=O)C[C@@H]3O[C@H]1C[C@H](N)[C@H](O)[C@H](C)O1
# Test: cells, lysate or membranes named
# Details: other: Lineweaver-Burk plots; rat canalicular vesicles; pH 7.4
# Chain of Mdr1b P-gp (Rattus norvegicus) (chain, as listed by the source): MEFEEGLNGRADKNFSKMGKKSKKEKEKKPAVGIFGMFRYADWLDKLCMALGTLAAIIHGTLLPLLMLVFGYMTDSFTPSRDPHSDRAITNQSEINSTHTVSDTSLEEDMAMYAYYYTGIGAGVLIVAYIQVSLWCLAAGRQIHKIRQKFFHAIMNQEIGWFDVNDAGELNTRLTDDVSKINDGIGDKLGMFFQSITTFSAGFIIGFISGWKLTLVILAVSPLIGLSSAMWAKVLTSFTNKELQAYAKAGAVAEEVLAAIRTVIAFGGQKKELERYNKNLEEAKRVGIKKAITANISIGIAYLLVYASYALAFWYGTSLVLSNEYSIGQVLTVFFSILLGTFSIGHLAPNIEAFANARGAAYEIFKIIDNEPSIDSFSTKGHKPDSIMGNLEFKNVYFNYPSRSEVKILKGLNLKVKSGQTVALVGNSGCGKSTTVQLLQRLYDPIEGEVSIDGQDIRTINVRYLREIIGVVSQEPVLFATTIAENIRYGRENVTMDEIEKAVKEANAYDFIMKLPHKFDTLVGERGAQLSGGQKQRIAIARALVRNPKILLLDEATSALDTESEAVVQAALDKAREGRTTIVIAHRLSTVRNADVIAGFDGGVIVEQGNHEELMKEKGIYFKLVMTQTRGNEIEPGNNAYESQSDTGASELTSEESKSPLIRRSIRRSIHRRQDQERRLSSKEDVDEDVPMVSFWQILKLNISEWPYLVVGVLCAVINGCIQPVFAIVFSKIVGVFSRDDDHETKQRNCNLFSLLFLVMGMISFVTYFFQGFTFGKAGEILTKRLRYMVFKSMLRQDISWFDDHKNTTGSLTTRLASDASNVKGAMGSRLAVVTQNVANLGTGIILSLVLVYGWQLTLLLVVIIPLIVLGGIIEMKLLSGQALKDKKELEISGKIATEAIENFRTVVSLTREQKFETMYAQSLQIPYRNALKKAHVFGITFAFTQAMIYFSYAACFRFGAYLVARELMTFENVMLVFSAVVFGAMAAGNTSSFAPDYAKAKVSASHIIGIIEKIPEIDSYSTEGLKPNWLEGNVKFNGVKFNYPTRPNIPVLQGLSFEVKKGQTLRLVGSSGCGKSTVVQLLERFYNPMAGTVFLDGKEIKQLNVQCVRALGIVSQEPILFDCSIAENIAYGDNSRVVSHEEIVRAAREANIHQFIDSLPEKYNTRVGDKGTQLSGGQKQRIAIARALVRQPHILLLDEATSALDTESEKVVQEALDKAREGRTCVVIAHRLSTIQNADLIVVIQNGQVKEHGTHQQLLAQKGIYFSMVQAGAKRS
substance,measurement,value
Mdr1b P-gp (Rattus norvegicus),Km,33 µM

# Source: article PMC2362229
